Experimental data reported in paper PMC6445550.

System: CCCCCCCCCCCCCCCC(=O)SCCNC(=O)CCNC(=O)[C@H](O)C(C)(C)COP(=O)(O)OP(=O)(O)OC[C@H]1O[C@@H](n2cnc3c(N)ncnc32)[C@H](O)[C@@H]1OP(=O)(O)O
Assay: purified protein

zDHHC9 (Homo sapiens)
Km: 45 ± 4 µM
